Source: article PMC7785020, “A unique hormonal recognition feature of the human glucagon-like peptide-2 receptor” (Cell Research, 2020)
Substitutions are numbered along the chain they refer to. Each block holds one molecule with its values, some of them ahead of it.

Key:
[1] = target: T1, GLP-2R W249^ECL1A (Homo sapiens, UniProt O95838, W249A); experiment: cAMP accumulation, W249^ECL1A; type: cell-based; set-up: WT (1–553); expressed in transfected cells; HEK 293T (cAMP)
T1 sequence (O95838 1-553 W249A): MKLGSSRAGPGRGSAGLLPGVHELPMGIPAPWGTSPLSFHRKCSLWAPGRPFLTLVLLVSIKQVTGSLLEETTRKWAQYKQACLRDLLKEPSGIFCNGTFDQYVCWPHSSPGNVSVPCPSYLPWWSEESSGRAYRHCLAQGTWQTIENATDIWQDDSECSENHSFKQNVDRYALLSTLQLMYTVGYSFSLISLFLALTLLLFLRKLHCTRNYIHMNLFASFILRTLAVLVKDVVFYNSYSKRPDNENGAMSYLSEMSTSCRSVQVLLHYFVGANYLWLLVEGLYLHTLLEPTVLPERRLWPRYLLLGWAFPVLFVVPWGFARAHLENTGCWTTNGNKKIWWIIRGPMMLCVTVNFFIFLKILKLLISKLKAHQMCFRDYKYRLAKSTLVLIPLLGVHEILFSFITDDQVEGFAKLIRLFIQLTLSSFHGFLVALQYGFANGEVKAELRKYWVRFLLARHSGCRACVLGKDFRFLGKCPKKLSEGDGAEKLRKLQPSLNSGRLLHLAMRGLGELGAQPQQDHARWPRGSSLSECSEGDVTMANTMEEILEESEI
Experimental: (§1) They were seeded onto 6-well cell culture plates and transiently transfected with different GLP-2R constructs using Lipofectamine 2000 transfection reagent (Invitrogen, Carlsbad, CA, USA). After 24 h, the transfected cells were seeded onto 384-well microtiter plates (3000 cells per well) in HBSS supplemented with 5 mM HEPES, 0.1% (w/v) bovine serum albumin (BSA) and 0.5 mM 3-isobutyl-1- methylxanthine, and stimulated with increasing concentrations of GLP-2 for 30 min at RT. Eu and Ulight were diluted by cAMP detection buffer and added to the plates separately to terminate the reaction. Plates were incubated at RT for 60 min before measuring the fluorescence intensity at 620 nm and […] by an EnVision multilabel plate reader (PerkinElmer, Boston, USA).

[2] = target: T2, GLP-2R Y252^ECL1A (Homo sapiens, UniProt O95838, Y252A); experiment: cAMP accumulation, Y252^ECL1A; type: cell-based; set-up: WT (1–553); expressed in transfected cells; HEK 293T (cAMP)
T2 sequence (O95838 1-553 Y252A): T1 sequence (O95838 1-553 W249A) with A249W, Y252A
Experimental: as §1

[3] = target: T3, GLP-2R R242^ECL1E (Homo sapiens, UniProt O95838, R242E); experiment: cAMP accumulation, R242^ECL1E; type: cell-based; set-up: WT (1–553); expressed in transfected cells; HEK 293T (cAMP)
T3 sequence (O95838 1-553 R242E): T1 sequence (O95838 1-553 W249A) with R242E, A249W
Experimental: as §1

[4] = test system: GLP-2R; details: cited from earlier work
Text: Consistently, the truncated metabolite GLP-2(3–33) acts as a part ...

[5] = target: T4, GLP-2R R242(ECL1)A (human) (UniProt O95838)
T4 sequence: T1 sequence (O95838 1-553 W249A) with R242A, A249W

[6] = target: GLP-2R (1-553) (WT) (human) (UniProt O95838)
[7] = target: T5, GLP-2R Y252(ECL1)A (human) (UniProt O95838)
T5 sequence: T1 sequence (O95838 1-553 W249A) with A249W, Y252A

[8] = target: GLP-2R R242(ECL1)E (human) (UniProt O95838)
[9] = target: GLP-2R W249^ECL1A (human) (UniProt O95838)
[10] = target: T4, GLP-2R R242(ECL1)A (human); remark: listed apart in the source
[11] = target: GLP-2R (1-553) (WT) (human) (UniProt O95838); remark: listed apart in the source
[12] = target: T5, GLP-2R Y252(ECL1)A (human); remark: listed apart in the source
[13] = target: GLP-2R R242(ECL1)E (human) (UniProt O95838); remark: listed apart in the source
[14] = target: GLP-2R W249^ECL1A (human) (UniProt O95838); remark: listed apart in the source
[15] = target: Human GLP-2R WT (1–553) (human) (UniProt O95838)
[16] = target: GLP-1R (WT) (Homo sapiens, UniProt P43220)
Sequence of GLP-1R (WT) (P43220 24-463): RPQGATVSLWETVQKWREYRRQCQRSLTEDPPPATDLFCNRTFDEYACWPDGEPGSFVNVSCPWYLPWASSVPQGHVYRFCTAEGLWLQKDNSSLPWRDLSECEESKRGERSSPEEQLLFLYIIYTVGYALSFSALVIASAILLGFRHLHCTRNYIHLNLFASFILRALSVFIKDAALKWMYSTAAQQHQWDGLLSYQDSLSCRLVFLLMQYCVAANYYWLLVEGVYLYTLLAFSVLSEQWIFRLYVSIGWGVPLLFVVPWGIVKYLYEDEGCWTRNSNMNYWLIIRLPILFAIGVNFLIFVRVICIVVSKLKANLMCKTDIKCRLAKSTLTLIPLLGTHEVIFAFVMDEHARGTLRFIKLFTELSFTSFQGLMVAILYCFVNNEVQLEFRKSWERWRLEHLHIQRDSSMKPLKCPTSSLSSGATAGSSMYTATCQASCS

Molecule: GLP-2(3–33): truncated metabolite of GLP-2, partial agonist (DGSFSDEMNTILDNLAARDFINWLIQTKITD; Glucagon-like peptide 2; UniProt P01275 148-178, looked up, fragment)
type of agonism (in words) ([4]; GLP-2R): partial agonist
reduction in binding affinity (in words) ([4]; vs GLP-2): great reduction in binding affinity
reduction in potency (in words) ([4]; vs GLP-2): great reduction in binding affinity and potency

Molecule: chimeric GLP-2/GLP-1(1–6) (peptide)
peptide-induced cAMP accumulation for GLP-2R: fold decrease against native GLP-2 [15]: 12 fold

Molecule: chimeric GLP-2/GLP-1(20–33) (peptide)
peptide-induced cAMP accumulation for GLP-2R: fold reduction of potency [15]: 17 fold

Molecule: HADGSFTSDVSSYLEGQAARDFINWLIQTKITD [chimeric GLP-2/GLP-1(7-19)]
Table S5: pEC50 of cAMP accumulation induced by the chimeric peptide (7-19), cells transfected with GLP-1R (WT) [16]: 10.9 -log M
Table S5: pEC50 of cAMP accumulation induced by the chimeric peptide (7-19), cells transfected with GLP-2R (WT) [6]: 8.5 -log M

The next lines start with the values.

EC50 [1]: 2.51 nM
Emax ([1]; HEK-293T, Table S5, W249A, HEK 293T, 30 min, RT, mean ± SEM, n ≥ 3 in duplicate, read-out: cAMP Emax (% WT)): -2.4 ± 0.7%
EC50 [2]: 0.631 nM
Emax ([2]; HEK-293T, Table S5, Y252A, HEK 293T, 30 min, RT, mean ± SEM, n ≥ 3 in duplicate, read-out: cAMP Emax (% WT)): -0.7 ± 1.1%
EC50 [3]: 2.51 nM
Emax ([3]; HEK-293T, Table S5, R242E, HEK 293T, 30 min, RT, mean ± SEM, n ≥ 3 in duplicate, read-out: cAMP Emax (% WT)): -2.2 ± 0.9%
Molecule: CC[C@H](C)[C@H](NC(=O)[C@H](Cc1ccccc1)NC(=O)[C@H](CCC(=O)O)NC(=O)[C@H](CCCCN)NC(=O)[C@H](C)NC(=O)[C@H](C)NC(=O)[C@H](CCC(N)=O)NC(=O)CNC(=O)[C@H](CCC(=O)O)NC(=O)[C@H](CC(C)C)NC(=O)[C@H](Cc1ccc(O)cc1)NC(=O)[C@H](CO)NC(=O)[C@H](CO)NC(=O)[C@@H](NC(=O)[C@H](CC(=O)O)NC(=O)[C@H](CO)NC(=O)[C@@H](NC(=O)[C@H](Cc1ccccc1)NC(=O)[C@@H](NC(=O)CNC(=O)[C@H](CCC(=O)O)NC(=O)[C@H](C)NC(=O)[C@@H](N)Cc1c[nH]cn1)[C@@H](C)O)[C@@H](C)O)C(C)C)C(=O)N[C@@H](C)C(=O)N[C@@H](Cc1c[nH]c2ccccc12)C(=O)N[C@@H](CC(C)C)C(=O)N[C@H](C(=O)N[C@@H](CCCCN)C(=O)NCC(=O)N[C@@H](CCCNC(=N)N)C(=O)NCC(=O)O)C(C)C [GLP-1(1-31)]

Table S5: pEC50 of GLP-2(1-33)-induced cAMP accumulation, cells transfected with the receptor mutant [5]: 9.9 -log M
Table S5: pEC50 of GLP-2(1-33)-induced cAMP accumulation, cells transfected with the receptor (wild-type reference of the table) [6]: 10.8 -log M
Table S5: pEC50 of GLP-2(1-33)-induced cAMP accumulation, cells transfected with the receptor mutant [7]: 10.1 -log M
Table S5: pEC50 of GLP-2(1-33)-induced cAMP accumulation, cells transfected with the receptor mutant [8]: 9.6 -log M
Table S5: pEC50 of GLP-2(1-33)-induced cAMP accumulation, cells transfected with the receptor mutant [9]: 7.4 -log M
Table S3: pEC50 of GLP-2-induced cAMP accumulation, HEK 293T cells transfected with the receptor mutant [10]: 9.8 -log M
Table S3: pEC50 of GLP-2-induced cAMP accumulation, HEK 293T cells transfected with the receptor (wild-type reference of the table) [11]: 10.4 -log M
Table S3: pEC50 of GLP-2-induced cAMP accumulation, HEK 293T cells transfected with the receptor mutant [12]: 9.8 -log M
Table S3: pEC50 of GLP-2-induced cAMP accumulation, HEK 293T cells transfected with the receptor mutant [13]: 9.1 -log M
Table S3: pEC50 of GLP-2-induced cAMP accumulation, HEK 293T cells transfected with the receptor mutant [14]: 7.2 -log M
Molecule: Human GLP-2(1-33) (peptide)
